In patent US20130059388:

Columns and labels:
[1] = system: MAPRE3 ZFN of pair 31/32 (second) (synthetic); assay: cell_activity; details: Cel-1 efficiency of ZFN pair 31/32; no productive tag integration
[2] = system: MAPRE3 ZFN of pair 31/32 (first) (synthetic); assay: cell_activity; details: Cel-1 efficiency of ZFN pair 31/32; no productive tag integration

| Sequence | activity [1] [%] | activity [2] [%] |
| --- | --- | --- |
| AGGAAGGATTCGCAC (double strand) [MAPRE3 half-site 2] | 21 |  |
| TTCCTCTCTCTCCCAC (double strand) [MAPRE3 half-site 1] |  | 21 |
